Data published in publication PMC7940618, “Specific inhibition of the Survivin–CRM1 interaction by peptide-modified molecular tweezers” (Nature Communications, 2021).
Peptide text beside a SMILES is read from it.

Legend:
Assay type in all cases: binding
[1] = molecular target: T1, Survivin120 (Homo sapiens, UniProt O15392); assay: ITC titration of tweezers with Survivin120 wildtype
T1 construct: the only published NMR structure originated from a truncated Survivin (aa 1-120) with improved solubility; GST with PreScission site (N); made in house; host or cells: Escherichia coli soluBL21
T1 sequence (O15392 1-120): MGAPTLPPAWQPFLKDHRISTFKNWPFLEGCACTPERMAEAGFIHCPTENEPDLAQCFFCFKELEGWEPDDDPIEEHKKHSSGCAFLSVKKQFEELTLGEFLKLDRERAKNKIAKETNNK
Experimental: The interaction between the tweezers and Survivin was studied by isothermal titration calorimetry (ITC) and NMR spectroscopy. So far, the only published NMR structure originated from a truncated Survivin (aa 1-120) with improved solubility. […] Since the truncated construct still contains all relevant parts of the protein and gives excellent NMR spectra (SI5), we chose it for all our in vitro experiments and denote it as Survivin120 in the following results.
(§1) ITC was performed with a MicroCal iTC200 from Malvern Panalytical in PBS, pH 7.4 at 25 °C with molecular tweezers in the cell and Survivin120 in the titration syringe. The protein was dialyzed overnight at 4 °C against the PBS buffer. Ligands were dissolved in the respective dialysis buffer. Then, 300 µM TW were titrated with 300 µM Survivin120 WT or 321 µM Survivin120 K90/103T. Then, 100 µM TW-ELTL, TW-ELTLGEFL, or TW-LFEEGLLT was titrated with 1.2 mM Survivin120 WT or 2.5 mM Survivin120 K90/103T. For reverse titrations, either 33.3 or 34.4 µM Survivin120 in the cell was titrated with 5 mM TW or TW-ELTL in the syringe, respectively. All titrations were performed in PBS, pH 7.4 at 25 °C. Then, 1.5 μL injections were used with 120 s spacing time between injections. The injection rate was set to 0.5 µL/s and the reference power was 5 µcal/s. ITC thermograms were fitted to a one set of sites model with the software Origin (v7.0552) provided with the instrument. Heat of dilution was subtracted as constant from each data point.
(§2) ITC thermograms were fitted to a one set of sites model with the software Origin provided with the instrument. Heat of dilution was subtracted as constant from each data point. From three independent experiments (n = 3), one representative example was depicted, and thermodynamic data were derived thereof. For pull-down experiments, only the representative quantification of the depicted western blot is shown. […] Fluorescence anisotropy graphs were generated with GraphPad Prism 5.0. Depicted error bars represent the standard deviation of three independent titrations.

[2] = molecular target: T2, Survivin120 K90/103T (Homo sapiens, UniProt O15392, K103T/K90T); assay: ITC titration of tweezers with Survivin120 K90/103T mutant
T2 construct: the only published NMR structure originated from a truncated Survivin (aa 1-120) with improved solubility; GST with PreScission site (N); made in house; host or cells: Escherichia coli soluBL21
T2 sequence (O15392 1-120 K90T/K103T): as the sequence (O15392 1-120) above, with K90T, K103T counted along it
Excerpt: If the tweezer-based inhibitors indeed bind to lysines/arginines flanking the NES (K90, K91, K103, R106), their mutation to, e.g., threonine, should abolish the observed effects. For this reason, we generated double and triple Survivin120 mutants lacking these putative tweezer anchor points. Unfortunately, most double mutants and especially the triple mutants were unfolded as evidenced by 1D ^1H NMR (SI6); finally, the correctly folded double threonine mutant Survivin120 K90/103T was chosen for further investigation. […] Next, binding of FAM-labeled tweezers (SI3) to either Survivin120 wildtype or the K90/103T mutant was studied by fluorescence anisotropy (Fig. 7d–f). […] We conclude that lysines 90 and 103 are indeed essential for efficient tweezer binding.
as §1, §2

[3] = molecular target: T3, Survivin–CRM1 complex (Homo sapiens, UniProt O15392); assay: Pull-down with 293T lysate (Survivin142-HA), GST-CRM1 bait, RanQ69L, dGTP
T3 construct: expressed in transfected cells; host or cells: 293T cells (Survivin142-HA); E. coli soluBL21 (GST-CRM1, RanQ69L)
T3 sequence (O15392 whole entry, one chain of several): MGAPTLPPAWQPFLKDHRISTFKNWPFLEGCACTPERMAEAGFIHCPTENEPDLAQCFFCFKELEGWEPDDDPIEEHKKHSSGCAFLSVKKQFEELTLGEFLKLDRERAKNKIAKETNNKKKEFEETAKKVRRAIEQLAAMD
Experimental: We next investigated whether tweezers inhibit the Survivin–CRM1 complex formation in vitro. The effects of the unmodified and peptide-linked tweezers were analyzed via pull-down experiments with 293T lysates containing overexpressed HA-tagged Survivin142, recombinant GST-CRM1 as bait protein, and tweezers (Fig. 6). The parent and ELTL-linked tweezer required 10–50 µM to disrupt the Survivin–CRM1 complex. […] In order to provide experimental evidence for the sequence selectivity of the TW-ELTLGEFL ligand, a scrambled analog was synthesized and clicked to the tweezer, resulting in the hybrid molecule TW-LFEEGLLT (SI1, SI2, and SI10). […] Instead, the slight chemical shift perturbations might be due to the spatial proximity of the peptide moiety to the anchoring residue. All those results strongly indicate that the additional binding energy from the NES interface was lost due to scrambling and thus point toward specific recognition as the reason for increased selectivity and interference with the Survivin–CRM1 interaction. Of note, very high tweezer concentrations (100–200 µM) also weakened GST-CRM1 binding to GSH-Sepharose beads, most likely by low-affinity binding to the GST protein.
(§3) All pull-down assays were performed at room temperature in pull-down buffer (PBS, pH 7.4, 1 mM DTT, 0.02 Triton X-100). GST fusion proteins were immobilized on 50 μL GSH-coated Sepharose 4B beads from GE Healthcare. The beads were prior equilibrated and blocked with 500 μL pull-down blocking buffer (PBS, pH 7.4, 1 (w/v) BSA, 1 mM DTT, 0.02 (v/v) Triton X-100) for 1 h to prevent unspecific binding.
For analysis of the effective inhibitory tweezer concentration, 200 μg 293T lysate with overexpressed Survivin142-HA was preincubated without ligand or with different concentrations (10 nM to 200 μM) of unmodified tweezer TW, TW-ELTL, TW-ELTLGEFL, or TW-LFEEGLLT for 1 h and then mixed with 35 μg GST-CRM1, 55 μg RanQ69L, and 2 mM dGTP. GSH-beads were incubated with this protein mixture for 2 h under rotation. […]
Samples of input and beads taken during pull-down experiments were ran on 12.5 SDS gels and transferred onto 0.2 µM PVDF membranes (Amersham Hybond P 0.2) using a PerfectBlue™ tank electro blotter (Peqlab) at 350 mA for 150 min. […] Chemiluminescence was detected and imaged using the Pierce ECL Plus Western Blotting Substrate kit (Thermo Fisher Scientific) and Chemidoc system (Bio-Rad) or film processor Cawomat 2000 IR (CAWO). Western blots were analyzed by densitometric analysis with ImageJ version 1.52p (U.S. National Institutes of Health), measuring the mean gray intensity of protein bands. […]

[4] = molecular target: T4, GST-Survivin120–CRM1 interaction (Homo sapiens, UniProt O15392); assay: Pull-down with GST-Survivin120 wildtype bait, CRM1 and RanQ69L
T4 construct: the only published NMR structure originated from a truncated Survivin (aa 1-120) with improved solubility; made in house; host or cells: Escherichia coli soluBL21
T4 sequence (O15392 1-120): as the sequence (O15392 1-120) above
Experimental: (§4) Next, we investigated whether tweezer inhibition of the export complex assembly is compromised upon lysine mutations near the NES. Therefore, pull-down experiments were performed with recombinant GST-tagged Survivin120 wildtype and K90/103T as bait proteins, tweezers, recombinant CRM1 and RanQ69L (Fig. 7g). Controls lacking the Survivin baits were included, as well as isolated peptides without tweezer (Fig. 7h). […] However, for the double lysine mutant GST-Survivin120-K90/103T even the tweezer conjugates lost most of their inhibitory power toward the essential Survivin–CRM1 interaction.
as §3
(§5) For analysis of the effective inhibitory tweezer concentration, 200 μg 293T lysate with overexpressed Survivin142-HA was preincubated without ligand or with different concentrations (10 nM to 200 μM) of unmodified tweezer TW, TW-ELTL, TW-ELTLGEFL, or TW-LFEEGLLT for 1 h and then mixed with 35 μg GST-CRM1, 55 μg RanQ69L, and 2 mM dGTP. GSH-beads were incubated with this protein mixture for 2 h under rotation. For analysis of tweezer specificity, 40 μg GST-Survivin120 or GST-Survivin120-K90/103T point mutant was pre-bound to equilibrated GSH-beads in 500 μL pull-down buffer, containing additionally either no ligand or 50 μM unmodified tweezer TW, TW-ELTL, TW-ELTLGEFL, or peptides ELTL and ELTLGEFL, for 1 h under rotation. After washing and blocking, GSH-beads were incubated with a protein mixture consisting of 2 mM dGTP, 50 μg CRM1, and 50 μg RanQ69L for 2 h under rotation.
(§6) Samples of input and beads taken during pull-down experiments were ran on 12.5 SDS gels and transferred onto 0.2 µM PVDF membranes (Amersham Hybond P 0.2) using a PerfectBlue™ tank electro blotter (Peqlab) at 350 mA for 150 min. Membranes were blocked for 1 h using 5% milk powder in TBS buffer containing 0.1% Tween-20. Next, membranes were incubated in primary antibodies against HA (anti-HA, mouse monoclonal, BioLegend, Covance MMS-101R, 1:1,000), GST (anti-GST, mouse monoclonal, Santa Cruz Biotechnology Inc., sc-57753, 1:1000) or CRM1 (anti-CRM1, rabbit polyclonal, Novus Biologicals Ltd., NB100-79802, 1:10,000) overnight at 4 °C. Secondary horseradish peroxidase (HRP)-conjugated antibody (anti-mouse IgG-HRP, sheep, GE Healthcare, NXA931 or anti-rabbit IgG-HRP, donkey, GE Healthcare, NA934) was then added (1:10,000) for 1 h at room temperature. Chemiluminescence was detected and imaged using the Pierce ECL Plus Western Blotting Substrate kit (Thermo Fisher Scientific) and Chemidoc system (Bio-Rad) or film processor Cawomat 2000 IR (CAWO). Western blots were analyzed by densitometric analysis with ImageJ version 1.52p (U.S. National Institutes of Health), measuring the mean gray intensity of protein bands. Uncropped and unprocessed scans of western blots are deposited in the Source Data file.

[5] = molecular target: T5, GST-Survivin120-K90/103T–CRM1 interaction (Homo sapiens, UniProt O15392, K103T/K90T); assay: Pull-down with GST-Survivin120-K90/103T bait, CRM1 and RanQ69L
T5 construct: the only published NMR structure originated from a truncated Survivin (aa 1-120) with improved solubility; made in house; host or cells: Escherichia coli soluBL21
T5 sequence (O15392 1-120 K90T/K103T): as the sequence (O15392 1-120) above, with K90T, K103T counted along it
Experimental: as §4, §3, §5, §6

[6] = CRM1 band, samples 22-28 (K90/103T)

## CC(C)C[C@H](NC(=O)Cn1cc(CCOP(=O)(O)Oc2c3c(c(OP(=O)(O)O)c4c2C2CC4c4cc5c(cc42)C2CC5c4ccccc42)C2CC3c3cc4c(cc32)C2CC4c3ccccc32)nn1)C(=O)N[C@@H](Cc1ccccc1)C(=O)N[C@@H](CCC(=O)O)C(=O)N[C@@H](CCC(=O)O)C(=O)NCC(=O)N[C@@H](CC(C)C)C(=O)N[C@@H](CC(C)C)C(=O)N[C@H](C(=O)O)[C@@H](C)O [TW-LFEEGLLT] (HELM PEPTIDE1{[O=C(Cn1cc(CCOP(=O)(O)Oc2c3c(c(OP(=O)(O)O)c4c2C2CC4c4cc5c(cc42)C2CC5c4ccccc42)C2CC3c3cc4c(cc32)C2CC4c3ccccc32)nn1)[*:2]].L.F.E.E.G.L.L.T}$$$$V2.0)
[1]; ITC KD ratio
  lower affinity toward wildtype protein compared with TW-ELTLGEFL: ~ three
[1]; ITC, Survivin120 WT
  -TΔS: -4.7 kcal
  ΔG: -5.7 kcal
  ΔH: -1.0 kcal
[1]; ITC, Survivin120 WT, PBS pH 7.4, 25 °C, one set of sites model, mean ± SEM of fit
  Kd: 68 ± 22 µM
[2]
  Kd: 55 ± 24 µM
[2]; ITC, Survivin120 K90/103T
  ΔH: -1.4 kcal
[3]; pull-down analyses
  effectiveness compared with TW-ELTLGEFL: about one order of magnitude less effective
[3]; pull-down, concentrations between 1 and 50 µM (SI18)
  concentration inhibiting the Survivin/CRM1 interaction efficiently: > 50 µM

## ELTLGEFL peptide: isolated peptide ELTLGEFL without tweezer, pull-down control
[4]; CRM1 band, samples 15-21 (WT)
  CRM1: Peak area determined with ImageJ: 27360.9
  CRM1 intensity_normalised on GST-Surv intensity (samples 1-14): 0.3991
[4]; CRM1 band, samples 15-21 (WT), sample 16 subtracted
  CRM1: Control w/o GST-Survivin subtracted (sample 16 or 23): 22503.2
[4]; GST-Surv bait band, samples 1-7 (WT according to the summary in r39-r41)
  GST-Surv: Peak area determined with ImageJ: 57214.6
[4]; GST-Surv bait band, samples 1-7 (WT), sample 2 subtracted
  GST-Surv: Control w/o GST-Survivin subtracted (sample 2 or 9): 56379.3
[4]; WT, w/o tweezer = 100, replicates I and II
  Normalised CRM1 intensity, summary of replicates I and II: 112.936%
[4]; samples 15-21 (WT), fraction of sample 15 (w/o Tweezer)
  CRM1 intensity_normalised on GST-Surv intensity (samples 1-14) and CRM1 intensity w/o incubation (sample 15 or 22): 1.129
[4]; samples 15-21 (WT), w/o Tweezer = 100
  CRM1 intensity_normalised on GST-Surv intensity (samples 1-14) and CRM1 intensity w/o incubation (sample 15 or 22): 112.936%
[5]; [6]
  CRM1: Peak area determined with ImageJ: 38827.8
  CRM1 intensity_normalised on GST-Surv intensity (samples 1-14): 0.485
[5]; CRM1 band, samples 22-28 (K90/103T), sample 23 subtracted
  CRM1: Control w/o GST-Survivin subtracted (sample 16 or 23): 34118.6
[5]; GST-Surv bait band, samples 8-14 (K90/103T according to the summary in r39-r41)
  GST-Surv: Peak area determined with ImageJ: 72953.9
[5]; GST-Surv bait band, samples 8-14 (K90/103T), sample 9 subtracted
  GST-Surv: Control w/o GST-Survivin subtracted (sample 2 or 9): 70354.7
[5]; K90/103T, w/o tweezer = 100, replicates I and II
  Normalised CRM1 intensity, summary of replicates I and II: 76.5436%
[5]; samples 22-28 (K90/103T), fraction of sample 22 (w/o tweezer)
  CRM1 intensity_normalised on GST-Surv intensity (samples 1-14) and CRM1 intensity w/o incubation (sample 15 or 22): 0.7654
[5]; samples 22-28 (K90/103T), w/o tweezer = 100
  CRM1 intensity_normalised on GST-Surv intensity (samples 1-14) and CRM1 intensity w/o incubation (sample 15 or 22): 76.5436%
